B1: E6N2 (Fc fusion)
chain: VSDVPRDLEVVAATPTSLLISWFDYAVTYYRITYGETGGNSPVQEFTVPGWISTATISGLKPGVDYTITVYAVTDNSRWPFRSTPISINYRTEIDKPSQ

Assays:
[1] = system: E6N2 (anti-EGFR Fn3 clone E6 - mouse IgG2a Fc - PKR dsRBD) C121V,C135V (Homo sapiens); experiment: flow
[2] = target: epidermal growth factor receptor (EGFR) on human cancer cell lines (human, UniProt P00533 25-1210)

Molecule	Kd [1] [nM]	binding signal [1] [fold]	Kd [2] [nM]
AllStars Negative Control siRNA, Alexa 488 labeled	3.5	> 100	–
B1	–	–	~2.1

— patent publication US20150174265A1 (MIT, published 2015)
